# Target: the molecule itself
# Experiment: SEC; 128 µM αB crystallin alone in 20 mM tris-HCl, 160 µM MgCl2, 40 µM EGTA, pH 8.0; Biosep SEC-S4000, eluted in 20 mM tris-Cl pH 8.0 at 4°C; size from calibration proteins (apparent); subunits to polydisperse complex
protein,measurement,value
"human αB crystallin (natural protein, UniProt P02511 1-175, looked up, human αB crystallin, expressed from a human αB crystallin pET16b plasmid; 20 kDa on SDS-PAGE; Polydisperse complex; pET16b can add an N-terminal His tag, but purification was by anion exchange and SEC, so the protein is probably untagged (surmise); also called small heat shock protein (sHSP); source: E. coli BL21 (DE3), purified (Q Sepharose Fast Flow, Superdex 200); copies: 24) MDIAIHHPWIRRPFFPFHSPSRLFDQFFGEHLLESDLFPTSTSLSPFYLRPPSFLRAPSWFDTGLSEMRLEKDRFSVNLDVKHFSPEELKVKVLGDVIEVHGKHEERQDEHGFISREFHRKYRIPADVDPLTITSSLSSDGVLTVNGPRKQVSGPERTIPITREEKPAVTAAPKK",stoichiometry N,24 subunits

# From paper PMC2909917, “Dynamic Subunit Exchange and the Regulation of Microtubule Assembly by the Stress Response Protein Human αB Crystallin” (PLoS ONE, 2010)
